How the values were obtained:
[1] = target: T1, E. coli cytochrome bd-I subunit CydA (E. coli, UniProt P0ABJ9 1-522); assay: cryo-EM structure; purified Ecbd in LMNG micelles (unbound, Aurachin D bound) or in MSP1D1 PC nanodiscs doped with 5% menaquinone-9; monomeric and dimeric particles on the same grids; details: both partners purified
T1 construct: CydA, subunit of E. coli cytochrome bd-I (Ecbd); harbours hemes b558, b595 and d and the Q-loop; Co-expressed and co-purified with CydB, CydX and CydH; never isolated on its own
T1 sequence: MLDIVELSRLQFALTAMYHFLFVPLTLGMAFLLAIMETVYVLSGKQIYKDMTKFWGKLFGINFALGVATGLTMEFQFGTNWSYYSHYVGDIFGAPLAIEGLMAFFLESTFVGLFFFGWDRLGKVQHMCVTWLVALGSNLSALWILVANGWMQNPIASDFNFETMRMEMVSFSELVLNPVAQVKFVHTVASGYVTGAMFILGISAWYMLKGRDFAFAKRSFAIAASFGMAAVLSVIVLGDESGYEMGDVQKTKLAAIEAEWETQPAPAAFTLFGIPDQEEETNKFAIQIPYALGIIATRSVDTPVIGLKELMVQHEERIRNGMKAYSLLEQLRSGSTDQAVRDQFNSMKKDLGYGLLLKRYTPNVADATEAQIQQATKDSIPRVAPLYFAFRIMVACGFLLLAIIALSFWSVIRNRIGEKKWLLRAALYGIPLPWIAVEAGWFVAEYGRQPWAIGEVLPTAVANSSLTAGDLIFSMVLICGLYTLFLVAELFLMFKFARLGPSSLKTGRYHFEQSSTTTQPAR

[2] = target: the molecule itself; assay: as above

B1: E. coli cytochrome bd-I subunit CydX (natural protein)
chain: MWYFAWILGTLLACSFGVITALALEHVESGKAGQEDI
notes: CydX, single-helix subunit of E. coli cytochrome bd-I (Ecbd)
Q: Which results are given for B1?
A: binding result [1]: binds; binding result [2]: binds
